This note sets out measurements from patent publication US20130195901A1.

The assay deals with HLA-A*0201 class I monomer of the iTopia Epitope Discovery System. Kind of assay: iTopia binding ED50. The note with it: modification not given.

B1: PSMA 288-297 (L289(Nle), I297(Nle)) (peptide)
chain: YLSEKIFYV
Take B1: the EC50 (in general, the concentration that produces a half-maximal response) amounted to 0.524 µM.
